The source of these data is US20230304010A1 (AADIGEN, published 2023).

Where “and” joins values, the source holds several entries; their conditions need not be identical. Equal values may be shown once.

In experiment [1] the target is T1, SARS-CoV-2 Spike (SARS-CoV-2, UniProt P0DTC2 16-685). The experiment in a line: inhibitor screening kit, ADGN-106 nanoparticles (Example 6, section A).
Experiment [2] deals with T1, SARS-CoV-2 Spike. Description: inhibitor screening kit, ADGN-106 nanoparticles (Example 6, section B).
In experiment [3] the target is T1, SARS-CoV-2 Spike.

B1: Seq27 (LNCOV-27)/ADGN-106 nanoparticle complex (other)
peptide 1: EQAKTFLDKFNHEAEDLFPKWSAFLKEQSTLAQMYG
peptide 2: LWRALWRLWRSLWRLLWK
In the case of B1, the “fold more potent than SBP-1-ADGN-106/ADGN-106 complex” value in experiment [1] came to 6 fold; in experiment [2] it was 4 fold. Further, the “fold more potent than SBP-1 peptide/ADGN-106 complex” value in experiment [1] was 40 fold; in experiment [2], 35 fold. The IC50 in experiment [3] is 1.8 nM and 1.1 nM.

B2: Seq28 (LNCOV-20)/ADGN-106 nanoparticle complex (other)
peptide 1: KTFLDKFNHEAEDLFPGPKWSAFLKEQSTLAQMYG
peptide 2: LWRALWRLWRSLWRLLWK
As to B2, in experiment [1], the “fold more potent than SBP-1-ADGN-106/ADGN-106 complex” value came out at 6 fold and the “fold more potent than SBP-1 peptide/ADGN-106 complex” value worked out at 40 fold. In addition, in experiment [2], the “fold more potent than SBP-1-ADGN-106/ADGN-106 complex” value was 4 fold and the “fold more potent than SBP-1 peptide/ADGN-106 complex” value came out at 35 fold. For the same molecule, the IC50 in experiment [3] is 2.7 nM and 2.1 nM.
